Source: patent US10017734B2, “Method for producing dopaminergic neurons” (TAKEDA PHARMACEUTICAL COMPANY LIMITED, priority 2013, dated 2018)

Tests used:
[1] = system: floor plate cells induced from human iPS cell (253G1 strain, 201B7 strain); assay: Study of various MEK inhibitors (including FGFR inhibitor): NURR1 expression by quantitative RT-PCR on day 45; type: cell-based; settings: for expression of NURR1: 253G1 strain, added to ascorbic acid and dbcAMP, 3 μM PD0325901, 3 μM PD184352, 10 μM SU5402
From the text: Whether midbrain dopaminergic neuron can be induced in a medium containing any of PD184352 (Axon MedChem), SU5402 (FGF receptor (FGFR) inhibitor, Wako Pure Chemical Industries, Ltd.) and PD173074 (FGFR inhibitor, Axon MedChem) instead of PD0325901 in the aforementioned (A) Neuro/B27 was studied.
Floor plate cells were induced by a method similar to the methods described in Reference Examples 1 to 3, the medium was exchanged with Neuro/B27 added with (1) 3 factors of ascorbic acid, dbcAMP and PD0325901, (2) 2 factors of ascorbic acid and dbcAMP, (3) ascorbic acid, dbcAMP and 3 μM PD184352, (4) ascorbic acid, dbcAMP and 10 μM SU5402, or (5) ascorbic acid, dbcAMP and 0.1 μM PD173074 on day 13 of culture, and the cells were cultured at 37° C. under 5% CO2 for not less than 30 days. The medium was exchanged every 3-4 days during the above-mentioned culture periods. On day 45 of culture, the cells were recovered, and expression variation of NURR1 was examined. In 253G1 strain, the expression of NURR1 was elevated by the addition of PD0325901, PD184352 or SU5402 and, in 201B7 strain, the expression of NURR1 was elevated by the addition of all 4 kinds.

[2] = system: human iPS cell (253G1 strain, 201B7 strain); assay: Floor plate cell marker expression by quantitative RT-PCR on day 13 of culture; type: cell-based; settings: FGF8 added in addition to the 5 kinds (All+FGF8)
Description: The medium after preculture as described in the above-mentioned Reference Example 2 was exchanged with a differentiation induction medium containing factors inducing differentiation into floor plate cell (LDN193189 (0.5 μM, Axon MedChem B.V.), SB431542 (10 μM, Wako Pure Chemical Industries, Ltd.), purmorphamine (0.5 μM, Merck), SHH (200 ng/ml, R&D systems) and CHIR99021 (1 μM, Axon MedChem)) (day 0 of culture), and the cells were cultured at 37° C. under 5% CO2 for 5 days. Then, the medium was exchanged with a differentiation induction medium containing 0.5 μM LDN193189 and 1 μM CHIR99021, and the cells were cultured at 37° C. under 5% CO2 for 5-8 days (total 10-13 days). […]
To examine expression variation of floor plate cell marker due to the presence or absence of factors inducing differentiation into floor plate cell (LDN193189, SB431542, purmorphamine, SHH and CHIR99021), the cells on day 13 of culture were recovered, and total RNA fraction was purified using RNeasy (Qiagen). Using PrimeScript RT reagent kit (Takara Bio Inc.), cDNA was synthesized, quantitative RT-PCR was performed, and the gene expression levels of floor plate cell markers FOXA2 and LMX1A were measured. […]

[3] = system: TH/hNuc double positive cells in the mouse striatum; assay: Transplantation of day 26 cells to mouse striatum, tissue staining for TH and hNuc; type: in vivo, NOD SCID mice
Description: Midbrain floor plate cells were induced by a method similar to the methods described in Reference Examples 1 to 3, the medium was exchanged with Neuro/B27 added with 0.1 mM ascorbic acid, 0.5 mM dbcAMP, 3 μM PD0325901 or 0.1 mM ascorbic acid, 0.5 mM dbcAMP, 3 μM PD0325901, 20 ng/ml activin A on day 12 of culture, and the cells were cultured for 14 days more (total 26 days). After culture, the cells were washed with PBS, and dispersed by treating with TrypLE Express (Life Technologies) at 37° C. for 10 min. The cell concentration was adjusted to 1×10^5 cells/μl with Neuro/B27 medium, and the cells were maintained on ice until transplantation.
A transplantation experiment to mouse striatum was performed as follows. Twelve 8-week-old male NOD SCID mice (Charles River Laboratories Japan, Inc.) were divided into a control group and an activin A group (6 mice per each group). The cells cultured with the addition of ascorbic acid, dbcAMP, PD0325901 were used for transplantation to the control group, and the cells cultured with the addition of ascorbic acid, dbcAMP, PD0325901, activin A were used for transplantation to the activin A group. The hair of the head surgical field of the mice was shaved under pentobarbital (50 mg/kg, ip) anesthesia, and isodine was applied. Several minutes later, the skin was disinfected by wiping off isodine with Menban immersed in 0.1% Osvan aqueous solution, and the mice were fixed on a brain stereotaxis apparatus (David Kopf, David Kopf Instruments in USA). The scalp was incised from the midline, periosteum was detached, and Bregma and Lambda of the mice were exposed. “The mouse brain in stereotaxic coordinates” was referred to for the coordinate of the striatum (AP: +0.5 mm; ML: +1.8 mm), a hole was made in the cranial bone with an electric drill (ϕ0.5 mm), Hamilton syringe was inserted from the surface of the cranial bone to the depth DV: −3.5 mm, and the cells (1×10^5 cells/μl, 2 μl) were transplanted over 10 min After transplantation, the incision on the head was sutured and the mice were allowed to recover. […]

[4] = system: floor plate cells induced from human iPS cell (253G1 strain, 201B7 strain); assay: TH and NURR1 expression by quantitative RT-PCR on day 26 of culture; type: cell-based
Description: Floor plate cells were induced by a method similar to the methods described in Reference Examples 1 to 3, the medium was exchanged with Neuro/B27 added with one or more kinds of 0.1 mM ascorbic acid, 0.5 mM dbcAMP, 3 μM PD0325901, and 20 ng/ml activin A (R&D), or Neuro/B27 without addition of ascorbic acid, dbcAMP, PD0325901, and activin A as a control on day 12 of culture, and the cells were cultured for 14 days more (total 26 days). The cells after culture were recovered, and the expression variation of TH and NURR1 was examined by a method similar to Reference Example 3. […] On the other hand, when ascorbic acid, dbcAMP and PD0325901 were added, the expression level was lower at the time point of day 26 of culture than the addition of ascorbic acid, dbcAMP and activin A.

Molecule: O=C(NOCC1CC1)c1ccc(F)c(F)c1Nc1ccc(I)cc1Cl [PD184352, 2-(2-chloro-4-iodophenylamino)-N-cyclopropylmethoxy-3,4-difluorobenzamide]
- expression of NURR1 [1]: elevated

Molecule: CCCS(=O)(=O)Nc1ccc(F)c(C(=O)c2c[nH]c3ncc(-c4ccc(Cl)cc4)cc23)c1F [PLX4032]
- effect on expression of NURR1 ([1]; strain and concentration not given): no effect

Molecule: Cc1c[nH]c(C=C2C(=O)Nc3ccccc32)c1CCC(=O)O [SU5402, 3-[4-methyl-2-(2-oxo-1,2-dihydro-indol-3-ylidenemethyl)-1H-pyrrol-3-yl]-propanoic acid]
- expression of NURR1 [1]: elevated

B1: FGF8: growth factor, fibroblast growth factor-8 (protein, UniProt P55075 23-233, looked up)
Fibroblast growth factor 8: QEGPGRGPALGRELASLFRAGREPQGVSQQHVREQSLVTDQLSRRLIRTYQLYSRTSGKHVQVLANKRINAMAEDGDPFAKLIVETDTFGSRVRVRGAETGLYICMNKKGKLIAKSNGKGKDCVFTEIVLENNYTALQNAKYEGWYMAFTRKGRPRKGSKTRQHQREVHFMKRLPRGHHTTEQSLRFEFLNYPPFTRSLRGSQRTWAPEPR
- expression of FOXA2 and LMX1A [2]: scarcely changed

B2: activin A: peptidic cell proliferation and differentiation factor belonging to the TGFβ family; activator of activin receptor-like kinase-4,7 (protein, UniProt P08476 311-426, looked up)
Inhibin beta A chain: GLECDGKVNICCKKQFFVSFKDIGWNDWIIAPSGYHANYCEGECPSHIAGTSGSSLSFHSTVINHYRMRGHSPFANLKSCCVPTKLRPMSMLYYDDGQNIIKKDIQNMIVEECGCS
modifications: Inhibin beta A chain
- TH/hNuc double positive cells ([3]; 4 weeks after transplantation to mouse striatum): not less than 40%
- TH/hNuc double positive cells ([3]; 8 weeks after transplantation to mouse striatum): not less than 50%
- TH/hNuc double positive cells, change as compared to 8 weeks ([3]; 12 weeks after transplantation to mouse striatum): did not show a remarkable increase
- expression of TH and NURR1 ([4]; 20 ng/ml activin A alone): scarcely elevated
- expression of TH and NURR1 ([4]; activin A added together with ascorbic acid and dbcAMP): increased remarkably
